Measured values taken from patent publication US20070128190A1 (GLENMARK PHARMACEUTICALS S A, published 2007).

T1: GST-human α2 I domain fusion protein (human, UniProt P17301 153-368)
T1 construct: the reverse primer ends at ...SIEGTV; also called GST-α2 I domain; hα2I; not shown: glutathione S-transferase tag encoded by vector pGEX-2TK
T1 sequence: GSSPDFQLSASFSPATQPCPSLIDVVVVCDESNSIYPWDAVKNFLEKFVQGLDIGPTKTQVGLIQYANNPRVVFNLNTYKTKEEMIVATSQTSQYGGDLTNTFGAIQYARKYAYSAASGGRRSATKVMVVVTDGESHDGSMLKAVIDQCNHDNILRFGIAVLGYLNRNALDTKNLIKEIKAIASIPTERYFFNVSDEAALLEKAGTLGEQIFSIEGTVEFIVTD

B1: TMC-2206 (antibody, mouse IgG1, V domains shown)
VH: QVQLKESGPGLVAPSQSLSITCTVSGFSLTNYGIHWVRQPPGKGLEWLGVIWARGFTNYNSALMSRLIITKDNSQSQVFLKMNSLQPDDSATYFCARANDGVYYAMDYWGQGTSVTVSS
VL: QFVLTQSPAFLSASPGEKVTMTCSANSSVNYIHWYQQKSGTSPKKWIYDTSKLASGVPVRFSGSGSGTSYSLTISSMETEDAATYYCQQWTTNPLTFGAGTRVELK
notes: murine IgG1/κ secreted by hybridoma BHA2.1; labelled with Eu-N1-ITC where used as tracer; also called BHA2.1
B2: Humanized TMC-2206 (hIgG4/κ VH12.0/VL10.0Q) (antibody)
heavy: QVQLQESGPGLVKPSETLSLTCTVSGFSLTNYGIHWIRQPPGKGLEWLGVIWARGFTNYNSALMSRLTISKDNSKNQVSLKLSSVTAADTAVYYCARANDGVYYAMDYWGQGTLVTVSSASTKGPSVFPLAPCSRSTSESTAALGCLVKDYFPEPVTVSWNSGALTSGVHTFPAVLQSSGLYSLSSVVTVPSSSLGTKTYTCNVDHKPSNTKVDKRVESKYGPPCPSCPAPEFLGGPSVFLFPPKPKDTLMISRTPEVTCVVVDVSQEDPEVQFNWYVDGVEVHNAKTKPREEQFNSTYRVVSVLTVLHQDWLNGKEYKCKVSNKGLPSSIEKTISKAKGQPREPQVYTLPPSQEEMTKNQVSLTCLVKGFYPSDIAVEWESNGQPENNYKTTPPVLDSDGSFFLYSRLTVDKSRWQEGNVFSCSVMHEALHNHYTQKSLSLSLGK
light: DFVMTQSPAFLSVTPGEKVTITCSAQSSVNYIHWYQQKPDQAPKKLIYDTSKLASGVPSRFSGSGSGTDYTFTISSLEAEDAATYYCQQWTTNPLTFGQGTKVEIKRTVAAPSVFIFPPSDEQLKSGTASVVCLLNNFYPREAKVQWKVDNALQSGNSQESVTEQDSKDSTYSLSSTLTLSKADYEKHKVYACEVTHQGLSSPVTKSFNRGEC
notes: labelled with Eu or Alexa-488 in some assays

Tests used:
[1] = biological target: T2, human platelet α2β1 integrin (immobilized on microtiter plates) (human, UniProt P17301 30-1181; P05556 21-798); assay: competition with Eu-TMC-2206 on human platelet α2β1-coated plate
T2 construct: plates custom-coated with human platelet α2β1 by GTI Inc; also called immobilized α2β1 integrin; α2β1-coated plates

[2] = biological target: T3, GST (UniProt P08515 1-218 = GST); assay: ELISA, GST on immobilized TMC-2206
T3 construct: also called GST fusion protein (negative control)
T3 sequence (P08515 whole entry, the tested form may be a part): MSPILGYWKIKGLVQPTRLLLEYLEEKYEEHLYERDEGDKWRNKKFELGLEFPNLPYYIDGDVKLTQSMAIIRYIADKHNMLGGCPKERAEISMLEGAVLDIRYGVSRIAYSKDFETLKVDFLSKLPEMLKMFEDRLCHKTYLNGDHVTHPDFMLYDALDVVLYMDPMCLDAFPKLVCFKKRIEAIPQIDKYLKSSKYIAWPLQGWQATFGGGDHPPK

[3] = biological target: T1, GST-human α2 I domain fusion protein; assay: Eu-TMC-2206 on immobilized GST-α2 I domain at 37 °C, Scatchard
[4] = biological target: T4, BSA (UniProt P02769 25-607); assay: Eu-labelled antibody on BSA-coated control wells
T4 construct: also called BSA coated control wells
T4 sequence (P02769 25-607 limits assumed): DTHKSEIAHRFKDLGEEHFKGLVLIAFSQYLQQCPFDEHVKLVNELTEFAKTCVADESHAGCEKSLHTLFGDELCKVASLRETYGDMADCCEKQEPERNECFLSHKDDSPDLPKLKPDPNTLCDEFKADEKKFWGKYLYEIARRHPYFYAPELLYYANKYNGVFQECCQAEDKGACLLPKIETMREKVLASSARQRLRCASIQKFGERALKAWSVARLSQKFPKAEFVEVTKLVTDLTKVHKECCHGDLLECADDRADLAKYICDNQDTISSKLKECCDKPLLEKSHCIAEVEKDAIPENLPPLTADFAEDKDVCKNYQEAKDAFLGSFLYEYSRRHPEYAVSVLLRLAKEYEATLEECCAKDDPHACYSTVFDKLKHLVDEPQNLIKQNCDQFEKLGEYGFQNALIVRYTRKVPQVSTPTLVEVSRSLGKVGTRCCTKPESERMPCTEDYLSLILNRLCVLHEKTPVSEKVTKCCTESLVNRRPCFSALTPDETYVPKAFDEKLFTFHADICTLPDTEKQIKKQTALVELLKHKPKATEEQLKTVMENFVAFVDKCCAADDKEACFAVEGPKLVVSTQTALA

[5] = biological target: rat α2β1 integrin on rat blood cells (rat, UniProt A0A0G2K470 27-1178; P49134 21-798); assay: cell-based or functional assay
Chain of rat α2β1 integrin on rat blood cells (chain, as listed by the source, chain 1 of 2): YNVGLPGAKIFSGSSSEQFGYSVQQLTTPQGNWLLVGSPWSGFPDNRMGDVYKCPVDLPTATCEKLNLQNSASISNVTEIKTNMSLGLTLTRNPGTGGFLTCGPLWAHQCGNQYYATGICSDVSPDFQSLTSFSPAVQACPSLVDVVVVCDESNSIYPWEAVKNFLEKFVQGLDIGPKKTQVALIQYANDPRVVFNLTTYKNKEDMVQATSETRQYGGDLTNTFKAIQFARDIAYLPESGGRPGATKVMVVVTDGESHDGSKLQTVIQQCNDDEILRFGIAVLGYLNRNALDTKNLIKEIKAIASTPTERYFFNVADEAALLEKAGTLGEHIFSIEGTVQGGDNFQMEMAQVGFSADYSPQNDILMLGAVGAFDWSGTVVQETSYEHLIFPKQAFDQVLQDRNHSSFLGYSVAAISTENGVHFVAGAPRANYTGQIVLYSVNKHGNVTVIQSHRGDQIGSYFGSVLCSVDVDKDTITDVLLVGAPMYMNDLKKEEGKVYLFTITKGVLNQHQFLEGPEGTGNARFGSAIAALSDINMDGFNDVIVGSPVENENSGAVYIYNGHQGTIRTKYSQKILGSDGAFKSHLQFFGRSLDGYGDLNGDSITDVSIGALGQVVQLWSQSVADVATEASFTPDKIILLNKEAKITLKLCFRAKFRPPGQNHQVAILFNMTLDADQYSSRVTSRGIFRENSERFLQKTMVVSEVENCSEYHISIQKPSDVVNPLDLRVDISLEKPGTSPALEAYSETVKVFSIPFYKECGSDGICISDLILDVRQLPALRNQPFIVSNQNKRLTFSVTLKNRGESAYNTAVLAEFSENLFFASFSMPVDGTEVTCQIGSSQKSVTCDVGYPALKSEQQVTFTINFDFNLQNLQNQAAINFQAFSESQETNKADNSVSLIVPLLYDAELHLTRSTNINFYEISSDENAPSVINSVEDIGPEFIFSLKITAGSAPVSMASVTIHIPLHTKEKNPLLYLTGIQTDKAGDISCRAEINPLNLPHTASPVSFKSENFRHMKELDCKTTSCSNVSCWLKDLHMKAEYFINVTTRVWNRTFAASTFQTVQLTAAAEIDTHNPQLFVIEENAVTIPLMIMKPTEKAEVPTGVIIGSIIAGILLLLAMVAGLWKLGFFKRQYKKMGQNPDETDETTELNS
Chain of rat α2β1 integrin on rat blood cells (P49134 21-798, chain 2 of 2): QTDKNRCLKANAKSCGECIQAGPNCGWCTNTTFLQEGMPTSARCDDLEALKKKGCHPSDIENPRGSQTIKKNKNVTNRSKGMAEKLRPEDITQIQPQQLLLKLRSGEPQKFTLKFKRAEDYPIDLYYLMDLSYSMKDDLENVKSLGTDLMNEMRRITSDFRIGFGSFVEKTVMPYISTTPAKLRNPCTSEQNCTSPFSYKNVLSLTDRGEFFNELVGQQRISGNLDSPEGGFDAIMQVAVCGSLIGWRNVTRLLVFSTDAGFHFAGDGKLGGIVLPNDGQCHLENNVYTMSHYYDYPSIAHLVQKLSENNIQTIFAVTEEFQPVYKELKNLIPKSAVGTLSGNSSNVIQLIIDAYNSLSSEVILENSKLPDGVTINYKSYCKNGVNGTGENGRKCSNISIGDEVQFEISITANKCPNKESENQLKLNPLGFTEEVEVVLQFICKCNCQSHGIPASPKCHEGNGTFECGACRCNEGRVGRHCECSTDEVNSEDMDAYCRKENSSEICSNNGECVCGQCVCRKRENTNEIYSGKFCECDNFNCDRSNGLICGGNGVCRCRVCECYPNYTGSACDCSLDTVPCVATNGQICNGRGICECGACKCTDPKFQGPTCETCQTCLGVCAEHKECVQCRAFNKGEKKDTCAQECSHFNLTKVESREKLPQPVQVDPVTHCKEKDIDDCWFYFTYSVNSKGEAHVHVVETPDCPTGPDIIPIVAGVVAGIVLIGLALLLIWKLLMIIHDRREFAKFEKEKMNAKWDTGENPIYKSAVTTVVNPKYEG

[6] = biological target: human α2 integrin with endogenous hamster β1 on CHO cells (human; hamster); assay: cell-based or functional assay
Chain of human α2 integrin with endogenous hamster β1 on CHO cells (human; hamster) (P17301 30-1181 E534K): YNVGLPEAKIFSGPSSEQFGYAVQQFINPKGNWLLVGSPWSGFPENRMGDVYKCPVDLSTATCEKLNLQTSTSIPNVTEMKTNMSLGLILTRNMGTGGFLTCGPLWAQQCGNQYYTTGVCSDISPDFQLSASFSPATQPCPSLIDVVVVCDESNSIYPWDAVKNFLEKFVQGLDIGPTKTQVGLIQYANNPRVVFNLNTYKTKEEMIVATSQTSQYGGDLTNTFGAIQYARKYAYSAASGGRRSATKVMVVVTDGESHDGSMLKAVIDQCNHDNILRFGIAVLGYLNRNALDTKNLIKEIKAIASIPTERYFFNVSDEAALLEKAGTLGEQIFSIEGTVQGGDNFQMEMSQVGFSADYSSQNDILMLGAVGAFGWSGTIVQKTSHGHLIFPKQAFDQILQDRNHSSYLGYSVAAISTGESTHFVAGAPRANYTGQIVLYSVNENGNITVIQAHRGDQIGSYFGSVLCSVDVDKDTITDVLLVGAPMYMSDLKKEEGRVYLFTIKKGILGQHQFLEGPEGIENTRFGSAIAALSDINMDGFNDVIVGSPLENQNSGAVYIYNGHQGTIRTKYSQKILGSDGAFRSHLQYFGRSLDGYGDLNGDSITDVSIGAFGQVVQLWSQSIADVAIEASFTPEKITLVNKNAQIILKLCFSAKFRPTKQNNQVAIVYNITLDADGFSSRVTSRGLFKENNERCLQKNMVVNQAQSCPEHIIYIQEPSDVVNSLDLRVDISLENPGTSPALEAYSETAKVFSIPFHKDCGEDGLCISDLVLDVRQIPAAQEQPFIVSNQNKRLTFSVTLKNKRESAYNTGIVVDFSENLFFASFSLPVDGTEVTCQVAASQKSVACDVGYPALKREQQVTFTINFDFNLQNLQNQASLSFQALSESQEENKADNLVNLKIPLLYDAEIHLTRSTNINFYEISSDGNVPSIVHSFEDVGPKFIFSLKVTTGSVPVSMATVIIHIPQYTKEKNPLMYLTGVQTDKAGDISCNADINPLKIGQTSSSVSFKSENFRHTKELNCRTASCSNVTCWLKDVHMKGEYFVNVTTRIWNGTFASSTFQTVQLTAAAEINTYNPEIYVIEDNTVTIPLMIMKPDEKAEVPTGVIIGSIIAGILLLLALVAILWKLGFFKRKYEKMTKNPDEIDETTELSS

[7] = biological target: T1, GST-human α2 I domain fusion protein; assay: SPR (Biacore 2000), antibody captured, GST-α2 I domain in solution; second Human row; second Human row of humanized TMC-2206
Description: SPR, a method for characterizing macromolecular interactions, is an optical technique that uses the […] phenomenon to exquisitely measure minute changes in refractive index very close to a sensor surface. The binding between an antigen in solution (e.g., fusion protein) and its MAb receptor (immobilized on the surface of a sensor chip) results in a change in refractive index. The interaction is monitored in real time and the amount of bound antigen and the association and dissociation rate constants can be measured with high precision. The equilibrium dissociation constant can be easily calculated from: KD=kd/kₐ=koff/kₒₙ. The cloning of the human α2 I domain and the purification of the expressed GST-human α2 I domain fusion protein was described in Example 12. Analyses were performed at 20° C. using a Biacore 2000 optical sensor with a research-grade CM5 sensor chip (Biacore Life Sciences, Uppsala, Sweden) and equilibrated with running buffer (50 mM HEPES, 150 mM NaCl, 0.25 mM MgCl₂, 0.25 mM CaCl₂, 0.5% Tween-20, 0.1 mg/ml BSA, pH 7.4). […] Each cycle of antigen (GST-human-α2 I domain fusion protein) binding to surface-tethered anti-mouse IgGs involved three steps. […] [The other two surfaces (one anti-mouse and one Protein A) served as analytic references.] In the second step, GST-human-α2 I domain fusion protein was injected across the four surfaces. Responses obtained from the reference surfaces (due to refractive index mismatches between the antigen and running buffer) were subtracted from the responses obtained from the reaction surfaces. In the third step, the antigen/antibody complexes were stripped from the surfaces such that the surfaces could be used for another binding cycle.

[8] = biological target: T3, GST; assay: GST competing Eu-humanized TMC-2206 off α2β1-coated plate

Binder	Ki [1] [nM]	binding result [2]	Kd [3] [nM]	binding result [4]	EC50, inhibiting binding of rat platelets to rat collagen Type I [5] [nM]	fold shift, rat compared to human platelets [5] [fold]	EC50, inhibition of adhesion of CHO-α2 cells to collagen Type I [6] [nM]	EC50, inhibition of cell adhesion to collagen [6] [nM]	Kd [7] [nM]	koff [7] [s⁻¹]	kon [7] [M⁻¹ s⁻¹]	binding result [8]
B1	0.28	no binding (tested: ~1 µM)	0.2	no binding	6.3	~5	1.2	1.5	–	–	–	–
B2	–	–	–	–	–	–	–	–	4	0.0024	580000	no binding (tested: 0.4 µM)
